Assay results: patent publication US20080044407A1

Biological target: HPV 16 E786-93 epitope […] (X aminobutyric acid) presented by HLA-A2.1 (human papilloma virus (HPV) 16; human)

freshly isolated HLA-A2 positive CD8+ (CTLs) and CD4+ (HTLs) T cells (cells without a defined receptor)
IFN γ Elispot, frequency of spots (250,000 cells per well): 0.02%
